Data on 52 sequences can be found in the supplement of paper PMC10567573.

± gives the standard deviation.

This series in a line: protein stability index of a GFP-peptide fusion (GPS, HEK-293T) (PSI 1-6); higher = more stable.
Setting [1] is: treatment: DMSO, c terminus: a fixed tail appended.
[2] abbreviates: treatment: MLN4924 1 uM, 8 h, c terminus: a fixed tail appended.
[3] abbreviates: treatment: DMSO, c terminus: native.
[4] abbreviates: treatment: MLN4924 1 uM, 8 h, c terminus: native.
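Further: 24-mer peptide tiles fused after GFP, lentivirally expressed, FACS-sorted into six equal bins by GFP/DsRed ratio, decoded by Illumina sequencing, PSI is the read-weighted mean bin number.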

Consider SGSSYRDALQRYGTSHGAPPARGP [RBMY1A1], for which the protein stability index came out at 4.1 ± 0.22 under setting [1] and 4.14 ± 0.25 under setting [2].

Consider SIKKKFLKRKGKTDSPWIKPARKR [EHMT1], for which the protein stability index under setting [1] stood at 3.66 ± 0.082 and the protein stability index under setting [2] stood at 3.71 ± 0.17.

SIKPEASQMPPPAGGTSDDPEPSG [SCNN1D]: the protein stability index turned out to be 5.43 ± 0.15 under setting [1] and 5.57 ± 0.28 under setting [2].

SIPKLKLTRPVPAGADLPPPKIRL [PWWP2B]: the protein stability index reads like this: under setting [1], 3.45 ± 0.23; under setting [2], 3.63 ± 0.35.

Regarding SIVSGGYGGSGDGLIPTGSGRHPS [ARFIP2], the protein stability index reads like this: under setting [1], 3.96 ± 0.19; under setting [2], 4.34 ± 0.42.

Regarding SIYPMEVLKTRMALRKTGQYSGML [SLC25A25], the protein stability index by setting is: under setting [1], 2.48 ± 0.36; under setting [2], 2.6 ± 0.52.

As to SKAHLEKVRSYVKRALAEGAQIWC [ALDH8A1], the protein stability index is, setting by setting: under setting [1], 3.23 ± 0.73; under setting [2], 3.19 ± 0.56.

SKSKQPAGHRRPAGGIRESKESSK [C22orf31]: the protein stability index reads like this: under setting [1], 5.35 ± 0.055; under setting [2], 4.91 ± 0.53.

As for SKTFLCIGSSVMAASLVTMGIVNL [SLC2A12], the protein stability index under setting [1] worked out at 3.19 ± 0.72 and the protein stability index under setting [2] is 3.3 ± 0.54.

SKTNLIVNYLPQNMTQDEFKSLFG [ELAVL3]: the protein stability index runs as follows: under setting [1], 2.63 ± 0.28; under setting [2], 2.79 ± 0.22.

SLAQGPDAATTDELSSLGSDSEAN [TBC1D10A]: the protein stability index is, setting by setting: under setting [1], 5.56 ± 0.19; under setting [2], 5.5 ± 0.18.

For SLGYVRSQFLKLKTSVEKANAQIQ [CD207], the protein stability index runs as follows: under setting [1], 2.63 ± 0.53; under setting [2], 2.81 ± 0.27.

For SLKDGLSDSDSELSSSEGLEPGSA [PSD2], the protein stability index worked out at 5.47 ± 0.28 under setting [1] and 5.6 ± 0.13 under setting [2].

In the case of SLLNFLPEGVNKLKISPVTLKEAY [TENT5C], the protein stability index reads like this: under setting [1], 2.27 ± 0.23; under setting [2], 2.41 ± 0.12.

SLLPAQVAACAQTVVSLAAAGQPT [CEBPD]: the protein stability index came to 3.24 ± 0.9 under setting [1] and 2.9 ± 0.37 under setting [2].

With SLLQSAWMEILILGVVYRSLSFED [ESRRG], the protein stability index came out at 3.09 ± 0.26 under setting [1] and 3.07 ± 0.22 under setting [2].

As for SLRLCDMRAAALCDKHSKLFEEPE [PPP2R2C], the protein stability index under setting [1] came to 4.19 ± 0.26 and the protein stability index under setting [2] worked out at 4.08 ± 0.26.

With SLSAGEKPGFLAPRDLPKHTPLIS [RASAL3], the protein stability index is, setting by setting: under setting [1], 3.56 ± 0.23; under setting [2], 3.65 ± 0.32.

The sequence SLSHTELEAAEVILEHAHRGEQTT [FCHSD1] registered a protein stability index under setting [1] of 5.22 ± 0.26 and a protein stability index under setting [2] of 5.28 ± 0.11.

With SLTSGACRLDYRRPENRSFYLALY [TCF25], the protein stability index is, setting by setting: under setting [1], 2.41 ± 0.66; under setting [2], 2.57 ± 0.88.

On to SMLLQRFSVAPHETQTQRGGEFQC [RNF180], for which the protein stability index reads like this: under setting [1], 3.05 ± 0.097; under setting [2], 3.31 ± 0.26.

Turning to SNFHINVEESVDGQVVSSHKREI [KRT15], the protein stability index under setting [3] came to 2.91 ± 1 and the protein stability index under setting [4] is 3.83 ± 1.

Regarding SNIDKKFSAHYDAVEAELKSSTVG [FAM50A], the protein stability index worked out at 4.64 ± 0.18 under setting [1] and 4.83 ± 0.28 under setting [2].

Take SNPLAREIFRRHFRQLCYQETPGP [ZSCAN9]: the protein stability index stood at 2.28 ± 0.039 under setting [1] and 2.52 ± 0.097 under setting [2].

With SNQIPTEVRSKAEEVVSFVKKNVL [FUNDC2], the protein stability index runs as follows: under setting [1], 3.59 ± 0.32; under setting [2], 3.73 ± 0.18.

Sequence SNTRDRYGRSWESYSSCGDFHYCD [RBMY1A1] yielded a protein stability index under setting [1] of 2.73 ± 0.27 and a protein stability index under setting [2] of 2.91 ± 0.54.

SNWYITFQSDTDAQQAFILKRRS [LARP4]: the protein stability index reads like this: under setting [3], 2.93 ± 0.3; under setting [4], 2.21 ± 0.41.

For the sequence SPDVLQMLKIHRSDPQLIVQLRFC [TRADD], the protein stability index came to 2.73 ± 0.58 under setting [1] and 2.56 ± 0.6 under setting [2].

Turning to SPQPLASSPGPWGLEALAGGDLMP [FCHO1], the protein stability index is, setting by setting: under setting [1], 4.05 ± 0.093; under setting [2], 4 ± 0.27.

Consider SRLMVVVKMDSSIQPGPFRAVLKY [RHOBTB2], for which the protein stability index is, setting by setting: under setting [1], 2.9 ± 0.56; under setting [2], 2.79 ± 0.53.

Turning to SRLQEDPEGTENPLGVDESLFSYG [SLA], the protein stability index runs as follows: under setting [1], 4.91 ± 0.058; under setting [2], 4.66 ± 0.69.

On to SRPELLQPLNFVRFYLPLLIHQHE [GLT8D2], for which the protein stability index turned out to be 3.09 ± 0.33 under setting [1] and 3.14 ± 0.59 under setting [2].

For SRRPLDEAVAGAEGREAPALVAAG [DENND6A], the protein stability index runs as follows: under setting [1], 4.86 ± 0.35; under setting [2], 5.19 ± 0.25.

For SRRYNRKEPAEFNGDGAFLHDNHE [ZNF649], the protein stability index stood at 4.73 ± 0.43 under setting [1] and 4.45 ± 0.13 under setting [2].

On to SRVMFLLVDKETDKRHVEQKIQFK [PDZK1], for which the protein stability index worked out at 2.62 ± 0.32 under setting [1] and 2.88 ± 0.26 under setting [2].

For SSASSEQGLLGRSPPTRPVPGHRS [SPRY1], the protein stability index is, setting by setting: under setting [1], 4.82 ± 0.27; under setting [2], 4.8 ± 0.12.

SSDPFYTPEPDTCHELLGHVPLLA [TPH1]: the protein stability index is, setting by setting: under setting [1], 3.17 ± 0.35; under setting [2], 3.31 ± 0.15.

In turn, SSECHTSGFVGSGGWFCEGSFNGS [KRT36] showed a protein stability index under setting [1] of 3.23 ± 0.17 and a protein stability index under setting [2] of 3.06 ± 0.37.

For SSNLLDLKNPFFRYTGTTPSPPPG [CARM1], the protein stability index runs as follows: under setting [1], 3.29 ± 0.29; under setting [2], 3.42 ± 0.15.

In turn, SSREDSLEAGLPLQVRGYPEEKKE [CHGA] gave a protein stability index under setting [1] of 5.49 ± 0.21 and a protein stability index under setting [2] of 5.5 ± 0.3.

Consider SSRFSSSRLLGSASPSSSVRLGSF [PRPH], for which the protein stability index is 2.82 ± 0.24 under setting [1] and 2.83 ± 0.18 under setting [2].

As for SSTQLNELLLFAVGFIMAGTPMAL [OR3A1], the protein stability index by setting is: under setting [1], 3.05 ± 0.3; under setting [2], 3.04 ± 0.61.

For the sequence STCHAYSNTRDRYGRSWESYSSCG [RBMY1A1], the protein stability index is, setting by setting: under setting [1], 2.29 ± 0.16; under setting [2], 2.47 ± 0.37.

Regarding STDDFFFREDGAYEFNPDFLEEAH [N4BP2L1], the protein stability index amounted to 4.99 ± 0.34 under setting [1] and 4.89 ± 0.17 under setting [2].

Consider STELQASQILQNKKHKNSQLDKNS [FAM98B], for which the protein stability index worked out at 4.91 ± 0.38 under setting [1] and 5.06 ± 0.45 under setting [2].

With STLKTLLFFTALMITVPIGLYFTT [VMA21], the protein stability index amounted to 2.45 ± 0.19 under setting [1] and 2.31 ± 0.19 under setting [2].

For STPKLTSRSAAQDLDRMGVMTLPS [PPFIA4], the protein stability index by setting is: under setting [1], 4.03 ± 0.28; under setting [2], 3.97 ± 0.056.

Take STPTTPGSTAITPGTPPSYSSRTP [MAP2]: the protein stability index is, setting by setting: under setting [1], 4.88 ± 0.1; under setting [2], 5.06 ± 0.15.

As to SVETLDHDSVVEMIRKGGDQTSLL [PDZK1], the protein stability index was found to be 4.44 ± 0.42 under setting [1] and 4.55 ± 0.28 under setting [2].

With SVPLDPMERPMSQADLELDYNPPR [CBY2], the protein stability index is, setting by setting: under setting [1], 4.75 ± 0.6; under setting [2], 4.98 ± 0.23.

Take SVTKEGLELPEDEEEKKKMEESKA [HSP90AB1]: the protein stability index reads like this: under setting [1], 5.68 ± 0.32; under setting [2], 5.54 ± 0.39.

On to SYSRGYSYHDGYGEALGRDHSEHL [RBMY1A1], for which the protein stability index came out at 3.5 ± 0.28 under setting [1] and 3.38 ± 0.26 under setting [2].
